{
  "source": "paper PMC8276246",
  "about": "“Unlimited Cooperativity of Betatectivirus SSB, a Novel DNA Binding Protein Related to an Atypical Group of SSBs From Protein-Primed Replicating Bacterial Viruses”",
  "molecules": {"B1": {"name": "50-mer dsDNA (dsDNA)", "DNA 1": "GAAAATAAAAATAAACTGGACAATTAAGGATCCTGTACAAGTCGACGCGG", "DNA 2": "CCGCGTCGACTTGTACAGGATCCTTAATTGTCCAGTTTATTTTTATTTTC"}},
  "key": {"[1]": {"tested_on": "B35SSB (Bacillus phage Bam35 (betatectivirus))", "assay": "EMSA", "settings": "EMSA: 50 mM Tris-HCl pH 7.5, 50 mM NaCl, 1 mM DTT, 4% glycerol, 0.1 mg/ml BSA, 0.05% Tween 20, 1 mM EDTA, 10 min at 4 C, 2 nM labeled probe"}, "EcoSSB": {"target": "EcoSSB (Escherichia coli, UniProt P0AGE0 1-178)", "sequence (P0AGE0 whole entry)": "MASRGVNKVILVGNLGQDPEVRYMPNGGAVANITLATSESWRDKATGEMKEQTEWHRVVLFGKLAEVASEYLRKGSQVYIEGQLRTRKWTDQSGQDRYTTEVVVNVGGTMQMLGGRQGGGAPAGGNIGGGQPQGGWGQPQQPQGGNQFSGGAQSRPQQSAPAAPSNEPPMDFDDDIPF", "assay": "EMSA; 1 uM protein; EMSA: 50 mM Tris-HCl pH 7.5, 50 mM NaCl, 1 mM DTT, 4% glycerol, 0.1 mg/ml BSA, 0.05% Tween 20, 1 mM EDTA, 10 min at 4 C; 2 nM labeled probe", "settings": "chain copies: 4; label: 5' 32P"}, "[2]": {"target": "T1, Φ29 terminal protein (Φ29TP) (Bacillus phage Φ29, UniProt P03681 1-266)", "T1 sequence": "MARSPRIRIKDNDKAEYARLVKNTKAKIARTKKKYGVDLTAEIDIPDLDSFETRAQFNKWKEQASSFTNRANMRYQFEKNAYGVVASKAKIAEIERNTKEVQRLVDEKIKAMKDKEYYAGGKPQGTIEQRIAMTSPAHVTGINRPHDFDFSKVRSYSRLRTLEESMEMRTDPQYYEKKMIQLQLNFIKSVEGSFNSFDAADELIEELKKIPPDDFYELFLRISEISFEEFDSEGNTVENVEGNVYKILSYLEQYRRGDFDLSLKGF", "assay": "EMSA; 20 nM protein; EMSA: 50 mM Tris-HCl pH 7.5, 50 mM NaCl, 1 mM DTT, 4% glycerol, 0.1 mg/ml BSA, 0.05% Tween 20, 1 mM EDTA, 10 min at 4 C; 2 nM labeled probe", "settings": "label: 5' 32P on strand 1; blunt"}},
  "data": [
    {"molecule": "GAAAAUAAAAAUAAACUGGACAAUUAAGGAUCCUGUACAAGUCGACGCGG [RNA-50mer]", "values": [
      {"measurement": "binding signal", "setting": "[1]; 5 uM protein", "value": 10, "unit": "% bound"}
    ]},
    {"molecule": "ACTGGCCGTCGTTCTATTGTACTCACTGTGATC [33-mer]", "values": [
      {"measurement": "binding signal", "setting": "[1]; 500 nM protein (25% bound at 250 nM)", "value": 50, "unit": "% bound"}
    ]},
    {"molecule": "GGCCCATATGTACCCATACGACGTCCCAGACTACGCTGGGACGGGGAGCGGGGCCAGTAAACTACTGACTGCGCAAGAGG [80-mer]", "values": [
      {"measurement": "binding signal", "setting": "[1]; 250 nM protein", "value": 70, "unit": "% bound"}
    ]},
    {"molecule": "GATCACAGTGAGTAC [15-mer]", "values": [
      {"measurement": "binding signal", "setting": "[1]; 1 uM protein, minor smear", "value": "< 10", "unit": "% bound"}
    ]},
    {"molecule": "GAAAAUAAAAAUAAACUGGACAAUUAAGGAUCCUGUACAAGUCGACGCGG (ssRNA)", "note": "[RNA-50mer]", "values": [
      {"measurement": "binding result", "setting": "EcoSSB", "value": "binds"}
    ]},
    {"molecule": "GAAAATAAAAATAAACTGGACAATTAAGGATCCTGTACAAGTCGACGCGG (ssDNA)", "note": "[50-mer]", "values": [
      {"measurement": "binding result", "setting": "EcoSSB", "value": "binds"}
    ]},
    {"molecule": "B1", "values": [
      {"measurement": "binding result", "setting": "[2]", "value": "binds"}
    ]}
  ]
}
